Source: IntAct's records for PubMed 29039417

B1: Protein PTHB1 (Homo sapiens), Q3SYG4 (parent)
chain: MSLFKARDWWSTILGDKEEFDQGCLCLANVDNSGNGQDKIIVGSFMGYLRIFSPHPAKTGDGAQAEDLLLEVDLRDPVLQVEVGKFVSGTEMLHLAVLHSRKLCVYSVSGTLGNVEHGNQCQMKLMYEHNLQRTACNMTYGSFGGVKGRDLICIQSMDGMLMVFEQESYAFGRFLPGFLLPGPLAYSSRTDSFLTVSSCQQVESYKYQVLAFATDADKRQETEQQKLGSGKRLVVDWTLNIGEQALDICIVSFNQSASSVFVLGERNFFCLKDNGQIRFMKKLDWSPSCFLPYCSVSEGTINTLIGNHNNMLHIYQDVTLKWATQLPHIPVAVRVGCLHDLKGVIVTLSDDGHLQCSYLGTDPSLFQAPNVQSRELNYDELDVEMKELQKIIKDVNKSQGVWPMTEREDDLNVSVVVSPNFDSVSQATDVEVGTDLVPSVTVKVTLQNRVILQKAKLSVYVQPPLELTCDQFTFEFMTPDLTRTVSFSVYLKRSYTPSELEGNAVVSYSRPTDRNPDGIPRVIQCKFRLPLKLICLPGQPSKTASHKITIDTNKSPVSLLSLFPGFASQSDDDQVNVMGFHFLGGARITVLASKTSQRYRIQSEQFEDLWLITNELILRLQEYFEKQGVKDFACSFSGSIPLQEYFELIDHHFELRINGEKLEELLSERAVQFRAIQRRLLARFKDKTPAPLQHLDTLLDGTYKQVIALADAVEENQGNLFQSFTRLKSATHLVILLIALWQKLSADQVAILEAAFLPLQEDTQELGWEETVDAAISHLLKTCLSKSSKEQALNLNSQLNIPKDTSQLKKHITLLCDRLSKGGRLCLSTDAAAPQTMVMPGGCTTIPESDLEERSVEQDSTELFTNHRHLTAETPRPEVSPLQGVSE
partner: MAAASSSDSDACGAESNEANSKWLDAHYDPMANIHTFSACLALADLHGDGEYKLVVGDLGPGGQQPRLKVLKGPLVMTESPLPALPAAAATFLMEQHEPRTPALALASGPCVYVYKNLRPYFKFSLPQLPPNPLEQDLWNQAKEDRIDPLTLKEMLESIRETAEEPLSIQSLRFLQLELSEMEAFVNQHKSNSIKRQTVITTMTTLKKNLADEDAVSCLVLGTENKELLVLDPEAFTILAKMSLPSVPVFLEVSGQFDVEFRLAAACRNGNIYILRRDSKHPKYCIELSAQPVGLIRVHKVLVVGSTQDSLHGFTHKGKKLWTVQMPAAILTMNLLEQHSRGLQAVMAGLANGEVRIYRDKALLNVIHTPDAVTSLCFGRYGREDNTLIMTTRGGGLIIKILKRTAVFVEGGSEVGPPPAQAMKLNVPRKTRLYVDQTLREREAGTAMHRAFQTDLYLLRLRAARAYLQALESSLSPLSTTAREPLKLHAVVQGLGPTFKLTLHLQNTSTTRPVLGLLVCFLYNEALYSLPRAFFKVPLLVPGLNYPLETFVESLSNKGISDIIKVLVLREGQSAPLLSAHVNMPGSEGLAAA

Variants of: B1
Settings: with bbs1_human BBS1, Q8NFJ9

| Variant | effect of a mutation on the interaction |
| --- | --- |
| S439E | with no effect |
| K594E | with no effect |
| A592K | with no effect |
| D517E | with no effect |
| P479K | with no effect |
| G433E | with no effect |
| I751A | with no effect |
| I612K | with no effect |
| Q722A | with no effect |
| G884K | with no effect |
| I738A | disrupting interaction strength |
| S414K | with no effect |
| T805A | with no effect |
| Q791L | disrupting interaction strength |
| V505K | with no effect |
| L583K | with no effect |
| T771S | disrupting interaction strength |
| L752A | with no effect |
| L752E | with no effect |
| D696E | with no effect |
| Y490E | with no effect |
| P691E | with no effect |
| N448E | with no effect |
| E625K | with no effect |
| Y508A | with no effect |
| Y508E | with no effect |

| Variant | effect of a mutation on the interaction |
| --- | --- |
| P530K | with no effect |
| K630E | with no effect |
| E853A | with no effect |
| Q742A | with no effect |
| L814A | with no effect |
| L618F | disrupting interaction strength |
| L825A | with no effect |
| E622A | with no effect |
| L815K | with no effect |
| G628A | with no effect |
| I801E | with no effect |
| Y703E | with no effect |
| R493E | with no effect |
| Q447E | with no effect |
| E878A | with no effect |
| S788E | with no effect |
| V577K | with no effect |
| I523K | with no effect |
| D686A | with no effect |
| L680A | with no effect |
| I707E | with no effect |
| L446E | with no effect |
| C816A | with no effect |
| V430E | with no effect |
| F421E | with no effect |
| L795E | with no effect |

| Variant | effect of a mutation on the interaction |
| --- | --- |
| V440E | with no effect |
| K456A | with no effect |
| V506I | disrupting interaction strength |
| K542E | with no effect |
| R407E | with no effect |
| Y460K | with no effect |
| K789A | with no effect |
| V432E | disrupting interaction strength |
| C826A | with no effect |
| E852K | with no effect |
| F864K | with no effect |
| S855E | with no effect |
| T688A | with no effect |
| P802T | disrupting interaction strength |
| L695M | disrupting interaction strength |
| Y599E | with no effect |
| I657E | with no effect |
| I657K | with no effect |
| I548E | with no effect |
| L744K | with no effect |
| S494A | with no effect |
| K781A | with no effect |
| K687E | with no effect |
| R449A | with no effect |
| F474K | with no effect |
| V416A | with no effect |

| Variant | effect of a mutation on the interaction |
| --- | --- |
| V416E | with no effect |
| V416K | with no effect |
| K728A | with no effect |
| H811A | with no effect |
| A746K | with no effect |
| L870A | with no effect |
| S806K | with no effect |
| G579K | with no effect |
| L793K | with no effect |
| L759E | with no effect |
| Q453K | with no effect |
| A712K | with no effect |
| V749K | with no effect |
| Y645K | with no effect |
| Y645A | with no effect |
| G659K | with no effect |
| S418E | with no effect |
| G718A | with no effect |
| G718K | with no effect |
| G718S | disrupting interaction strength |
| G767E | with no effect |
| E753K | disrupting interaction strength |
| L699E | with no effect |
| T782E | with no effect |
| T782A | with no effect |
| H651A | with no effect |

| Variant | effect of a mutation on the interaction |
| --- | --- |
| H651K | with no effect |
| R600K | with no effect |
| E660A | with no effect |
| T861A | with no effect |
| K547E | with no effect |
| Q426A | with no effect |
| T496K | with no effect |
| F673K | with no effect |
| Q807K | with no effect |
| Q677E | with no effect |
| Q471A | with no effect |
| N553E | with no effect |
| N553A | with no effect |
| N719A | with no effect |
| T865E | with no effect |
| T865A | with no effect |
| I649K | with no effect |
| V444K | with no effect |
| D804A | with no effect |
| A567K | with no effect |
| Q627E | with no effect |
| Q627T | disrupting interaction strength |
| T484A | with no effect |
| T763A | with no effect |
| V424E | with no effect |
| Q717A | with no effect |

| Variant | effect of a mutation on the interaction |
| --- | --- |
| P520K | with no effect |
| P520E | with no effect |
| D608A | with no effect |
| E466K | with no effect |
| P881A | with no effect |
| P881E | with no effect |
| T434E | with no effect |
| T434A | with no effect |
| T697C | disrupting interaction strength |
| S555K | with no effect |
| Q462K | with no effect |
| L536A | with no effect |
| D773A | with no effect |
| A690V | disrupting interaction strength |
| S667E | with no effect |
| S545K | with no effect |
| D747N | disrupting interaction strength |
| D747K | disrupting interaction strength |
| L481A | with no effect |
| T552K | with no effect |
| K803A | with no effect |
| T844A | with no effect |
| T844E | with no effect |
| Q858K | with no effect |
| P847K | with no effect |
| T512K | with no effect |

| Variant | effect of a mutation on the interaction |
| --- | --- |
| T845A | with no effect |
| E873K | with no effect |
| I588A | with no effect |
| L727K | with no effect |
| L727E | with no effect |
| P511E | with no effect |
| W741S | disrupting interaction strength |
| G584K | with no effect |
| A774K | with no effect |
| P497A | with no effect |
| V734E | with no effect |
| V734K | with no effect |
| I550A | with no effect |
| I550E | with no effect |
| D850A | with no effect |
| L655K | with no effect |
| P419K | with no effect |
| T445K | with no effect |
| R587E | with no effect |
| P840K | disrupting interaction strength |
| L562F | disrupting interaction strength |
| P834A | with no effect |
